target: Androgen receptor (AR) (UniProt P10275 P10275:1-920); test: EMSA
Sequence (P10275 whole entry, one chain of several): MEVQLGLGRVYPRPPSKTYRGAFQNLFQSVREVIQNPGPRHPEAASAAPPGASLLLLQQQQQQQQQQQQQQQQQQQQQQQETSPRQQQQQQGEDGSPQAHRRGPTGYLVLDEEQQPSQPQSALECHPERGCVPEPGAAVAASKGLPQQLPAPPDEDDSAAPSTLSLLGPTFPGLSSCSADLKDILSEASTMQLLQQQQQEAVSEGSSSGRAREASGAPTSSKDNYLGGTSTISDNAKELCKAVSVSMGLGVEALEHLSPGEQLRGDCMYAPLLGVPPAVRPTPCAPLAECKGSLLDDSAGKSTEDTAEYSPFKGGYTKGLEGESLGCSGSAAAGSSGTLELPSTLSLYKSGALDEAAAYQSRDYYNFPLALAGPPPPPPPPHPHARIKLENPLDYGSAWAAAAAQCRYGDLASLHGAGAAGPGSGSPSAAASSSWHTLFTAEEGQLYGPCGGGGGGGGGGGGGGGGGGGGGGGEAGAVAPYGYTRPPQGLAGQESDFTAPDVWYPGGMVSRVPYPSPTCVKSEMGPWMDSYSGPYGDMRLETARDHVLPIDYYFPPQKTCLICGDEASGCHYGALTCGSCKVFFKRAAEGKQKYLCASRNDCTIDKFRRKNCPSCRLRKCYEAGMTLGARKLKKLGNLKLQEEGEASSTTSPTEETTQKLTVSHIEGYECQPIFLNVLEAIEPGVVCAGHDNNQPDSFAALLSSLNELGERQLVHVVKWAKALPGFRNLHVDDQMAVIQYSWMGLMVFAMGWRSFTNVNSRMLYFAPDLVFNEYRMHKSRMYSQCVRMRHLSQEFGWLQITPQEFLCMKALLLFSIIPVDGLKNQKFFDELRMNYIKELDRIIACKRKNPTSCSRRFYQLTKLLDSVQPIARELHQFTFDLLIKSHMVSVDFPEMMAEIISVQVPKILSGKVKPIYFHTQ

Binding result, no binding:
UCUCUCUCUCUCUCUCUCUC (ssRNA) [(UC)10]
CCCUCCCUCCCUCCCUCCCU (ssRNA) [(CCCU)5]
UUCUUUCUUUCUUUCUUUCU (ssRNA) [(UUCU)5]

Reference: patent publication US20190071668, “COMPOSITIONS AND METHODS FOR IDENTIFICATION, ASSESSMENT, PREVENTION, AND TREATMENT OF CANCER USING SLNCR ISOFORMS” (Dana-Farber Cancer Institute, Inc., published 2019)
